From article PMC5757785

Target: FlAsH-tagged Lys6-linked diubiquitin (UniProt P0CG47)
Assay: fluorescence polarisation

Kd: 4 µM
Substance: USP30^c13i (inactive USP30 construct 13, C77A) (from UniProt Q70CQ3 1-517) (enzyme)
